In patent EP2658867B1 (Avidbiotics Corp., dated 2018):
Positions count from the first letter of the chain named.

B1: M13 phage pKK92 displaying MICA α3 domain with loop 3.1 in loop 1 (designed binder, not shown: large carriers)
chain: TVPPMVNVTSRGDHPRTQVTCRASGFYPWNITLSWRQDGVSLSHDTQQWGDVLPDGNGTYQTWVATRICQGEEQRFTCYMEHSGNHSTHPVPSGK
B2: M13 phage pKK91 displaying MICA α3 domain with His10sp in loop 3 (designed binder, not shown: large carriers)
chain: TVPPMVNVTRSEASEGNITVTCRASGFYPWNITLSWRQDGVSLSHDTQQWGDVLPDGNGTYQTWVATRISGGSGGGSHHHHHHHHHHSGGSGGGCYMEHSGNHSTHPVPSGK
B3: soluble MICA generated by pKK44 (extended loop 3.2sp in loop 1) (designed binder)
chain: HHHHHHEPHSLRYNLTVLSWDGSVQSGFLTEVHLDGQPFLRCDRQKCRAKPQGQWAEDVLGNKTWDRETRDLTGNGKDLRMTLAHIKDQKEGLHSLQEIRVCEIHEDNSTRSSQHFYYDGELFLSQNLETEEWTMPQSSRAQTLAMNVRNFLKEDAMKTKTHYHAMHADCLQELRRYLKSGVVLRRTVPPMVNVTSGGSGGGSTSRGDHPRTQSGGSGGGVTCRASGFYPWNITLSWRQDGVSLSHDTQQWGDVLPDGNGTYQTWVATRICQGEEQRFTCYMEHSGNHSTHPVPSGK
B4: soluble MICA generated by pKK45 (extended loop 3.3sp in loop 1) (designed binder)
chain: B3 chain with T204R, S205V, R206P, G207R, D208G, H209D, P210S, R211D, T212L, Q213T
B5: soluble MICA generated by pKK36 (loop 3.1 in loop 1) (designed binder)
chain: HHHHHHEPHSLRYNLTVLSWDGSVQSGFLTEVHLDGQPFLRCDRQKCRAKPQGQWAEDVLGNKTWDRETRDLTGNGKDLRMTLAHIKDQKEGLHSLQEIRVCEIHEDNSTRSSQHFYYDGELFLSQNLETEEWTMPQSSRAQTLAMNVRNFLKEDAMKTKTHYHAMHADCLQELRRYLKSGVVLRRTVPPMVNVTSRGDHPRTQVTCRASGFYPWNITLSWRQDGVSLSHDTQQWGDVLPDGNGTYQTWVATRICQGEEQRFTCYMEHSGNHSTHPVPSGK
B6: soluble MICA generated by pKK35 (His10sp in loop 3) (designed binder)
chain: EPHSLRYNLTVLSWDGSVQSGFLTEVHLDGQPFLRCDRQKCRAKPQGQWAEDVLGNKTWDRETRDLTGNGKDLRMTLAHIKDQKEGLHSLQEIRVCEIHEDNSTRSSQHFYYDGELFLSQNLETKEWTMPQSSRAQTLAMNVRNFLKEDAMKTKTHYHAMHADCLQELRRYLKSGVVLRRTVPPMVNVTRSEASEGNITVTCRASGFYPWNITLSWRQDGVSLSHDTQQWGDVLPDGNGTYQTWVATRISGGSGGGSHHHHHHHHHHSGGSGGGCYMEHSGNHSTHPVPSGK
B7: soluble MICA generated by pKK50 (extended loop 5.1sp in loop 3) (designed binder)
chain: B6 chain with H258V, H259T, H260R, H261G, H262D, H263T, H264F, H265T, H266Q, H267S
B8: soluble MICA generated by pKK51 (extended loop 5.3sp in loop 3) (designed binder)
chain: B6 chain with H259L, H260A, H261R, H262G, H263D, H264D, H265L, H266T, H267Y
B9: soluble MICA generated by pKK49 (extended loop 3.3sp in loop 3) (designed binder)
chain: B6 chain with H258R, H259V, H260P, H261R, H262G, H263D, H264S, H265D, H266L, H267T
B10: soluble MICA generated by pKK48 (extended loop 3.2sp in loop 3) (designed binder)
chain: B6 chain with H258T, H259S, H260R, H261G, H262D, H264P, H265R, H266T, H267Q
B11: soluble MICA generated by pKK41 (loop 5.2 in loop 1) (designed binder)
chain: HHHHHHEPHSLRYNLTVLSWDGSVQSGFLTEVHLDGQPFLRCDRQKCRAKPQGQWAEDVLGNKTWDRETRDLTGNGKDLRMTLAHIKDQKEGLHSLQEIRVCEIHEDNSTRSSQHFYYDGELFLSQNLETEEWTMPQSSRAQTLAMNVRNFLKEDAMKTKTHYHAMHADCLQELRRYLKSGVVLRRTVPPMVNVTRGDTFTQSVTCRASGFYPWNITLSWRQDGVSLSHDTQQWGDVLPDGNGTYQTWVATRICQGEEQRFTCYMEHSGNHSTHPVPSGK
B12: soluble MICA generated by pKK38 (loop 3.3 in loop 1) (designed binder)
chain: HHHHHHEPHSLRYNLTVLSWDGSVQSGFLTEVHLDGQPFLRCDRQKCRAKPQGQWAEDVLGNKTWDRETRDLTGNGKDLRMTLAHIKDQKEGLHSLQEIRVCEIHEDNSTRSSQHFYYDGELFLSQNLETEEWTMPQSSRAQTLAMNVRNFLKEDAMKTKTHYHAMHADCLQELRRYLKSGVVLRRTVPPMVNVTRVPRGDSDLTVTCRASGFYPWNITLSWRQDGVSLSHDTQQWGDVLPDGNGTYQTWVATRICQGEEQRFTCYMEHSGNHSTHPVPSGK
B13: soluble MICA generated by pKK42 (loop 5.3 in loop 1) (designed binder)
chain: B12 chain with R196H, V197L, P198A, S202D, D203L, L204T, T205Y
B14: soluble MICA generated by pKK40 (loop 5.1 in loop 1) (designed binder)
chain: B12 chain with R196V, V197T, P198R, R199G, G200D, D201T, S202F, D203T, L204Q, T205S
B15: soluble MICA generated by pKK39 (loop 3.4 in loop 1) (designed binder)
chain: B12 chain with V197S, P198A, L204H, T205R
B16: soluble MICA generated by pKK37 (loop 3.2 in loop 1) (designed binder)
chain: HHHHHHEPHSLRYNLTVLSWDGSVQSGFLTEVHLDGQPFLRCDRQKCRAKPQGQWAEDVLGNKTWDRETRDLTGNGKDLRMTLAHIKDQKEGLHSLQEIRVCEIHEDNSTRSSQHFYYDGELFLSQNLETEEWTMPQSSRAQTLAMNVRNFLKEDAMKTKTHYHAMHADCLQELRRYLKSGVVLRRTVPPMVNVTRTSRGDHPRTQVTCRASGFYPWNITLSWRQDGVSLSHDTQQWGDVLPDGNGTYQTWVATRICQGEEQRFTCYMEHSGNHSTHPVPSGK

Target: T1, integrin αVβ3 (UniProt P06756 31-992; P05106 27-718)
T1 construct: Coated on the ELISA plate
T1 sequence (P06756 31-992, chain 1 of 2): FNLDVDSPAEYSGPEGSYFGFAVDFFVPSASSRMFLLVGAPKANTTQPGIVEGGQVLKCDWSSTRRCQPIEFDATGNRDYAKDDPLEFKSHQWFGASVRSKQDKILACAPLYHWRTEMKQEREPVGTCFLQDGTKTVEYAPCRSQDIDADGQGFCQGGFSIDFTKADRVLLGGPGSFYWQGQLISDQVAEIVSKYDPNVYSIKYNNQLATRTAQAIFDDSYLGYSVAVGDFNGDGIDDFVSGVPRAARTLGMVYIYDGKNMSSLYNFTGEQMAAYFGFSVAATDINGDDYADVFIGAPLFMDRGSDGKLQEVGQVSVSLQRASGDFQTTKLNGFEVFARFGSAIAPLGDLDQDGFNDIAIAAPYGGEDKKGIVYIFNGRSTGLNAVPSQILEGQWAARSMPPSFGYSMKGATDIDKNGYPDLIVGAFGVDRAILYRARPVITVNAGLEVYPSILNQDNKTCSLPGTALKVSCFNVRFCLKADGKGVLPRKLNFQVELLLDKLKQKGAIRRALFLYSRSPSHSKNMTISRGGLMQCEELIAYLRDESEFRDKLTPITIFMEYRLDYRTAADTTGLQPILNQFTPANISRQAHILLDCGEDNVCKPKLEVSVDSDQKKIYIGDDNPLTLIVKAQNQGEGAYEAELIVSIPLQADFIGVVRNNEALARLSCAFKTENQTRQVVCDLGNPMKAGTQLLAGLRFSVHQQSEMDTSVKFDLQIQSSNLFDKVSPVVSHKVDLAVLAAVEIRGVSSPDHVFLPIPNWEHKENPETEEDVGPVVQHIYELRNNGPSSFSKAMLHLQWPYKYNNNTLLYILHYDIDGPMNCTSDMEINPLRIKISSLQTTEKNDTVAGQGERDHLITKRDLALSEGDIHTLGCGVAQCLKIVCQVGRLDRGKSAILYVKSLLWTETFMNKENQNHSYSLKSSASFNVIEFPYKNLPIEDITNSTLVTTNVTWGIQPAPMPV
T1 sequence (P05106 27-718, chain 2 of 2): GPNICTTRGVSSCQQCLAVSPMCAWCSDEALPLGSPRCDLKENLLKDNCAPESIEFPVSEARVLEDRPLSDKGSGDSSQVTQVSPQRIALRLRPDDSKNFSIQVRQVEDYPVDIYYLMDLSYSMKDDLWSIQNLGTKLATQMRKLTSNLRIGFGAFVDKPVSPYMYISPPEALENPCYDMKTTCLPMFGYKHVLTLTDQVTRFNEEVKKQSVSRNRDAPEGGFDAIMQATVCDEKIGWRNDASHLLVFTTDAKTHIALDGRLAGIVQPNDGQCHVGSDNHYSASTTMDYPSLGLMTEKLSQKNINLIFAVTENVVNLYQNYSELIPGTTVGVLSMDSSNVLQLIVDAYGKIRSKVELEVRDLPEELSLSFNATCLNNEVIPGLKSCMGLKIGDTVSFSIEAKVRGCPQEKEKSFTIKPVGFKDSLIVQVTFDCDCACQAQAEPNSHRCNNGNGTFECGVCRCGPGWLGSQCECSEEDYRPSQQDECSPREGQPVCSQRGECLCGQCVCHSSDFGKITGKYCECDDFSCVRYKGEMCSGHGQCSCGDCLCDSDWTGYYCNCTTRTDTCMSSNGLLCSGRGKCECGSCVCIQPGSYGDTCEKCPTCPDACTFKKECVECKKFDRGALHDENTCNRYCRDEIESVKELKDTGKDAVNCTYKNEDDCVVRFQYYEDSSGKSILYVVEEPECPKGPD
Experiment: phage ELISA, integrin coated, anti-M13-HRP

| Binder | signal |
| --- | --- |
| B1 | 0.858 OD |
| B2 | 0.303 OD |

Target: T2, integrin αVβ5 (UniProt P06756 31-992; P18084 24-719)
T2 construct: Coated on the ELISA plate
T2 sequence (P06756 31-992, chain 1 of 2): as the sequence (P06756 31-992, chain 1 of 2) above
T2 sequence (P18084 24-719, chain 2 of 2): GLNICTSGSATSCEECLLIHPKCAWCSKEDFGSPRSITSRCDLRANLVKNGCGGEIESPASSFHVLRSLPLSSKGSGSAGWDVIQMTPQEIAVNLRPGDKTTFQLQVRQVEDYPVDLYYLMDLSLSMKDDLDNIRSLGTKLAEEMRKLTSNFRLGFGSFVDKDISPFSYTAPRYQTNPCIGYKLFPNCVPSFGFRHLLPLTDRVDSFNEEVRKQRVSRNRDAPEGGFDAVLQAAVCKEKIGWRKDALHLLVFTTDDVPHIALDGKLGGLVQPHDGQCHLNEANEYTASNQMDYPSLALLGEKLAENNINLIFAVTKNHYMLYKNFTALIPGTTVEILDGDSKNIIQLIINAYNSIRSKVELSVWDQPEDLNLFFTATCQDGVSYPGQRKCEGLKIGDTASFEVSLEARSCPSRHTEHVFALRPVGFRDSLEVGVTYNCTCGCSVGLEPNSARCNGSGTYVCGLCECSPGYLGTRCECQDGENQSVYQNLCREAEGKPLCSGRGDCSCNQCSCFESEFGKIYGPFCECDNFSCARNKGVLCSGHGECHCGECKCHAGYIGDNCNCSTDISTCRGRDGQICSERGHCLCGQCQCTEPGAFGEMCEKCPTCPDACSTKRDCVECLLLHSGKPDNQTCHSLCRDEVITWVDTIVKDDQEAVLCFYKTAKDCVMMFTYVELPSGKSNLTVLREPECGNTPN
Experiment: phage ELISA, integrin coated, anti-M13-HRP

| Binder | signal |
| --- | --- |
| B1 | 1.32 OD |
| B2 | 0.078 OD |

Target: T1, integrin αVβ3
Experiment: ELISA, integrin coated, anti-MICA-HRP

| Binder | signal | signal/ng |
| --- | --- | --- |
| B3 | 0.41 OD | 8.92 signal/ng |
| B4 | 0.393 OD | 9.51 signal/ng |
| B5 | 0.55 OD | 19 signal/ng |
| B6 | 0.419 OD | 2.46 signal/ng |
| B7 | 0.546 OD | 5.85 signal/ng |
| B8 | 0.694 OD | 7.2 signal/ng |
| B9 | 0.508 OD | 5.86 signal/ng |
| B10 | 0.478 OD | 6.08 signal/ng |
| B11 | 0.516 OD | 17.7 signal/ng |
| B12 | 0.291 OD | 30.7 signal/ng |
| B13 | 0.526 OD | 21.2 signal/ng |
| B14 | 0.485 OD | 19.5 signal/ng |
| B15 | 0.482 OD | 18 signal/ng |
| B16 | 0.777 OD | 22.4 signal/ng |

Target: T2, integrin αVβ5
Experiment: ELISA, integrin coated, anti-MICA-HRP

| Binder | signal | signal/ng |
| --- | --- | --- |
| B3 | 0.46 OD | 10 signal/ng |
| B4 | 0.41 OD | 9.92 signal/ng |
| B5 | 0.526 OD | 18.1 signal/ng |
| B6 | 0.392 OD | 2.31 signal/ng |
| B7 | 0.721 OD | 7.73 signal/ng |
| B8 | 1.05 OD | 10.9 signal/ng |
| B9 | 0.478 OD | 5.51 signal/ng |
| B10 | 0.604 OD | 7.68 signal/ng |
| B11 | 0.65 OD | 22.4 signal/ng |
| B12 | 0.291 OD | 30.7 signal/ng |
| B13 | 0.565 OD | 22.8 signal/ng |
| B14 | 0.675 OD | 27.1 signal/ng |
| B15 | 0.528 OD | 19.7 signal/ng |
| B16 | 0.779 OD | 22.4 signal/ng |
